According to paper PMC10315472:

How the values were obtained:
Test in all cases: SPR
[1] = target: wild-type SARS-CoV-2 Spike receptor-binding domain (SARS-CoV-2) (UniProt P0DTC2)
AMSIN (actinomyces) = target: AMSIN (actinomyces)
[2] = target: emorisin (Emergomyces orientalis)

Question: For (ΔGFG)AMSIN (peptide), which Kd [1] is on record?
Answer: Its Kd is 119 nM.

Question: With “wild-type SARS-CoV-2 Spike receptor-binding domain (from UniProt P0DTC2 319-527) (domain or fragment)” as the substance, how does the Kd (AMSIN (actinomyces)) read?
Answer: Its Kd is 193 nM.

Question: What about the Kd [2] of the same substance?
Answer: Its Kd is 7.6 nM.
